In a protein production outcome set (Wang et al. 2014):

Assay: label from the status in PepcDB records
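Further: failed if final PepcDB status was selected cloned or expressed and not failed if soluble or beyond.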

Sequence	protein production
MIQEIIAFLGRRGEFFYISVFMLLMFFIFLISWLIEPRRLINGVLFTIFFISVFAWITVMINKSTSRGLQRAYNLLLLIVFFGIILILVFAWLFLFWNAYFVWKYESHTLPNLLTLFSGFIALIFSVIFILGPGRYLPHWLSALLASIPAIAIYLGLVLYNFLVNLLLYQIYPRHYKQDYLIVLGAGLINGDQVSKLLAARINRAIQFSNRQYQKGRKRPIIIMSGGQGPDEKVPEALAMAKFAQHRGVSPDHILIEDQSKNTYQNMLFSKQLATNDFGGPNFKATFFSNNYHIFRAALLAKEVGLKANGVGAFTRLYYLPNAIIREFAGVFVMHKRRHFVIMGVIVLFFILQAILAAAGIVKFNVI	failed
MTQDPIANLKLARKGPIVSIIVYLSLSVAKLLAGYLLNASSLIADGFNNLSDIVGNVALLIGLHLASQPADANHKFGHWKIEDLSSLVTSFIMFLVGFQVLIHTIKSIFSGQQVDIDPLGAIVGIVSAFVMLGVYVFNKRLSKRVKSSALVAASKDNLADAVTSIGTSIAIIAASLHLPVIDHIAAMIITFFILKTAFDIFMESSFSLSDGFDSRHLKKYEKAILEIPKIVAVKSQRARTYGSNVYLDIVLEMNPDLSVYESHSITEKVEQLLSDQFSIYDIDIHVEPAMIPEEEIFDNVAKKLYRYEKLILSKVPDYDHYIAKSFQLIDANGQTVNYEQFLNQEIYYPSNFNHFQIESISQKTMLVTYQLNGNQRTSIWRRHESWSLLFHQITPIAKKQLHHTHYRIVKM	failed
MTNNLKQRRIILDLAVTLDGFIEGKNGEVDWCIMDPDMGFTDFLNQIDTILYGRKSFDLWGQYIPKNEDPDTEKELWKLVHSKKKYVFSRTQNEIDNQAIFINDNILEEVNKLKKNPGKDIWLYGGASLITTFINLGLVDEFRLSIHPVVLGEGKPLFIDVKQRINLKMVNTRTFSSGVVQIVYHWNG	not failed
MRYEKMNQEILAAIGGEENIQSVVHCATRLRFVLKDESKADDKKAEAIDGILQVVKKGGQYQLVIGNNVEDVYDDLINMIHIETSDSNKPKKKQNLFDAIIGAITGSIAPAIPLLAGAGMGKVLLLILTICHVLSDKSQTYQLLNLIFDTGYYFMPAYVGFSAAKIFNTDRMLGAFIGLMTVHPSWVQIVTTNKPFHFLGLPVPLVQYSSTLITAILSVWIMSYIYKFVRKITPGMVKVFMEPMLTMLITGPLVFLIIGPISNWISEGIGFIAMWLFRNAGVIAIPILAALYPWLVSIGIHKALSPISIQLVATQGFDPIIRVVALCSNMSQAAASLAVGLKTKNKKLKSLALSSSVTAYLGGITEPALFGVNLRLKKPMYGAMIGGAIAGIVASFMKLKAFIYVTPAFLSLPMWISKTENFVVQAIIVIIVASVATFIATWIIGFDDPIDEDQVKNAKKEEKKNFDKDHKKHELHAPVKGQLEDISKVADPTFASGVMGKGIAIVPSEGKIFAPEDGVVTAIFDTHHAIGLHLSNDADVLIHVGIDTVEMKGKGFKQLVQKGDKVTAGQELLDFNIDEIKKNGYDPTVVMIVTNSKDFLEVLTVLKDKDATKEVTNQDNVIILA	failed
MAGAPGPLRLALLLLGMVGRAGPRPQGATVSLWETVQKWREYRRQCQRSLTEDPPPATDLFCNRTFDEYACWPDGEPGSFVNVSCPWYLPWASSVPQGHVYRFCTAEGLWLQKDNSSLPWRDLSECEESKRGERSSPEEQLLFLYIIYTVGYALSFSALVIASAILLGFRHLHCTRNYIHLNLFASFILRALSVFIKDAALKWMYSTAAQQHQWDGLLSYQDSLSCRLVFLLMQYCVAANYYWLLVEGVYLYTLLAFSVLSEQWIFRLYVSIGWGVPLLFVVPWGIVKYLYEDEGCWTRNSNMNYWLIIRLPILFAIGVNFLIFVRVICIVVSKLKANLMCKTDIKCRLAKSTLTLIPLLGTHEVIFAFVMDEHARGTLRFIKLFTELSFTSFQGLMVAILYCFVNNEVQLEFRKSWERWRLEHLHIQRDSSMKPLKCPTSSLSSGATAGSSMYTATCQASCS	failed
MKSENVNKRDEYQRVFSCFDKSHQGKVSVSTIERCVDAIKSGKRAVVDQEDTTNPNPEESTDDKSLELEDFVKLVEEGEEADKEKDLKEAFKLYEESEGITPKSLKRMLSLLGESKSLKDCEVMISQFDINRDGIINFDEFRAMMQ	failed
MISSATKTLQTNNKTIYVAILSTLTFFLFLDYIPGLQAWSAWVTPPVALFLGLIFALTCGQAHPKFNKKTSKYLLQYSVVGLGFGMNLQSALASGKEGMEFTVISVVGTLLIGWFIGRKIFKIDRNTSYLISSGTAICGGSAIAAIGPVLRAKDSEMSVALGTIFILNAIALFIFPAIGHALDMTEHQFGTWAAIAIHDTSSVVGAGAAYGEEALKVATTIKLTRALWIIPMAFATSFIFKSKGQKISIPWFIFFFILAMIANTYLLNGVPQLGAAINGIARKTLTITMFFIGASLSLDVLRSVGVKPLIQGVLLWVVISLSTLAYIYFV	failed
MNNNLQRDAIAAAIDVLNEERVIAYPTEAVFGVGCDPDSETAVMRLLELKQRPVDKGLILIAANYEQLKPYIDDTMLTDVQRETIFSRWPGPVTFVFPAPATTPRWLTGRFDSLAVRVTDHPLVVALCQAYGKPLVSTSANLSGLPPCRTVDEVRAQFGAAFPVVPGETGGRLNPSEIRDALTGELFRQG	not failed
MIQVGDRFYDQAIVQTMGARAAEAVGLSDRPELSFAVCLSDPAEFLALLLAIREAGASVLPIHPSTPRAAARRLAIDLGCHRLVTDELAVEDLGAEDPGPGGLLQTTSGTTGEPKRIARSWAEIDREIDSYVATFVAPQDMTPLIACPITHSYGLICGVLVALRRGQVPHILGTANPKYLIARLRQTRQPLLYSSPAMLHAIARLLPAGEMIHAAMTSGTLLPDQWLMTIRARTTHLFQQYGCSEAGCVAINPNLSASGDMGAPLPHLRVEAGDTDQPREIVVHVGDRAIRTADLGYTKADGTLVFVGRLDDTINVSGLNVYPKEVEDVVMAMPGVTDAVVFRRLDSLAGERVAVAFSAEHSIAPADLRDWCIKNLAAHQVPMETVRLPRLPRQANGKISRREIAALHAEGRLELLAEETAA	failed
MASWPYCNHKRGLNGYGVFFSIFFGSGAYNAPVRIAVLADIHGNADALRAVLKDAAEQGAERLIVNGDVVNRGPDSVQVMEELLARDDTSFVLGNHDDLLRLWHTRSDKLPQDWYDDPFWGATAWSTEQLHAAGLLDVPGDWPLTARLSVPGLPDVLLAHGTPDDYRRGLSERTDPALVRRIADESGAGVLVGSHIHRQADALVGGVRVLNTGAVGSPADGDPRAQYLLLTATPQGWQTELRRVPYDRSGVLQRFETSGLLDTGLSARIFRDELVTARSLYTPYWEWTETGGCPRDTASWEQFAQDWT	failed
MTEIKYKVITKDAFALPYTIIKAKNQPTKGVIVYIHGGGLMFGKANDLSPQYIDILTEHYDLIQLSYRLLPEVSLDCIIEDVYASFDAIQSQYSNCPIFTFGRSSGAYLSLLIARDRDIDGVIDFYGYSRINTEPFKTTNSYYAKIAQSINETMIAQLTSPTPVVQDQIAQRFLIYVYARGTGKWINMINIADYTDSKYNIAPDELKTLPPVFIAHCNGDYDVPVEESEHIMNHVPHSTFERVNKNEHDFDRRPNDEAITIYRKVVDFLNAI	failed
MNKFELYHPILTEHFALDWLTHSKVRDIFELRHDPEIAKASDRDIDATIEDTTTYVNQMMRLVMNNEALIWGITDQNTHEFLGTFCIWDFDQAQKSASVRFEILRNQQHKGIMSEVLRRMSIFSFEELGLEKLFATALKNNTIARTLLEQVGFSAVASQTDNQNITLELNRH	failed
LGINEISSSFFSLLLEILLLESQASLPMLEERVLDWQSSPASSLNSWFSAAPNWAELVLPALQYLAGESRAVPSSFSPFVEFKEKTQQWKLLGQSQDNEKELAALFQLWLETKDQAFCKQENEDSS	not failed
MKYIINHSNDTAFNIALEEYAFKHLLDEDQIFLLWINKPSIIVGRHQNTIEEINRDYVRENGIEVVRRISGGGAVYHDLNNLNYTIISKEDENKAFDFKSFSTPVINTLAQLGVKAEFTGRNDLEIDGKKFCGNAQAYINGRIMHHGCLLFDVDLSVLANALKVSKDKFESKGVKSVRARVTNIINELPKKITVEKFRDLLLEYMKKEYPEMTEYVFSEEELAEINRIKDTKFGTWDWNYGKSPEFNVRRGIKFTSGKVEVFANVTESKIQDIKIYGDFFGIEDVAAVEDVLRGVKYEREDVLKALKTIDITRYFAGISREEIAEAVVG	not failed
MEATEKLREKPIKSLFISYLIPAVLGMVLMSVNIVIDAVMISRGVGANGLAGVNVAIPAFSIFFSISLWIGMGGATLYSIALGENKIERARSIFTQSMTVAVIIVGVLAAICLWRIEDLAYVFGANEVILPYALDYLHVLLTFGMIYVLENILSTFIRNDGNPNLAMAGLVVTAVLNIVFDYIFIFIFKWGVTGAASATILSAAIGFLVLLTHFFRKSSILKWTKFHFEWDTVKQIMIIGFPSFTAESTVAIVTIGFNIAFVQYAGEVGVASYAMVNSIHAMTLLLFFGVGAALQPIASFHYGANLAERLREGLQFAVKIAVVLGGVAIIVGLFFGKYIIGLFDVQSPELLELTLTGMSLFFIQYVFLGYNIVYGEYFQSVRQTTKSVLIIMSRGLLFIIPLLWIMPKLFGINGIWLVMPVAEVLTAIIVFTMNRMKHPVPLNMAGEKEAI	failed
MACHELSALRIAIGELLEKEAHDLLHEREELAPVLGQRPELKRLAEAKTLPALEEALREALLHLEERAAQEPEEPYWRGLLLAVEAMEGRLKALRAEAEALYQDLDALHGRLHRLFPRRR	not failed
MSKVEQNAQHNIQQTSPNAAVQSGLQEWHRIIAEADWERLPDLLAEDVVFSNPSTFDPYHGKGPLMVILPAVFSVLENFQYARHFSSKSGYVLEFNANMGDELLTGVDLIEFNDAGKITDLVVMMRPASVVIDLSVEVGKRIAAAQS	not failed
MSSSDGKLRYDGRVAVVTGAGAGLGREYALLFAERGAKVVVNDLGGTHSGDGASQRAADIVVDEIRKAGGEAVADYNSVIDGAKVIETAIKAFGRVDILVNNAGILRDRSLVKTSEQDWNLVNDVHLKGSFKCTQAAFPYMKKQNYGRIIMTSSNSGIYGNFGQVNYTAAKMGLIGLANTVAIEGARNNVLCNVIVPTAASRMTEGILPDILFNELKPKLIAPVVAYLCHESCEDNGSYIESAAGWATKLHMVRGKGAVLRPSLDDPVTIEYVKDVWSNVTDMSKAKHLGAIAEASGTLLEVLEKLKEGGGDAIEDAFEFNSKELITYALGIGASVKNAKDMRFLYENDADFAAIPTFFVLPGLLLQMSTDKLLSKALPNSQVDFSNILHGEQYLEIVDDLPTSGTLLTNGKVFDVMDKGSGAVVVTNSESFDESGRLLVRNQSTTFIVGAGKFGGKKDPIAGVVPLQPAPNRQPDATVQYTTSEDQAALYRLSGDKNPLHIDPQMALLAGFKTPILHGLCTLGFSVRAVLAQFADNNPALFKAVKVRFSGPVIPGQTLRVDLWKQGTRINFRTVVVETGKEVISGAYVDLKSSQAKL	failed
MREEHSPVRDGRRSGGLRSLIDPRFLSSFALNDGGSISGRRSSYLKLPPQGRIKLSVVKLNGSLFDVEVAKDCSVAELKRAVEQVFTISPLEGHGMISWSHVWGHFCLCYRDQRLVNDKTSIRYLGLNDGDQLHFVRHLSIDHSPMNKRSKSPSCKRYLELDVSSIVNEIQIQNQNQNGVDDVAEKCYPGAQDELPAAESRLVNLIKGWLPYAGRWGVSRKGPECRSGPSRFSLKHFGGRPKM	failed
MNHRLAGIISPLGHITTDPIRSSSVNPSSPVYYKTIVNHFKSQTGNHVSPGLTNQEISAVESSHGFSFPLDLRSILQTGLPVGTNFPNWRTGSNRNNLLLPLLNLSQHVVRNGFWVDSWGIRPGNDAEALSLVKKLIEIAPVLVPVYGDFYVPSTTPNLAGNPVFQIDGDGVRELSCDVVGFLKGIGRSETPTEDRRRRRRPRRVEFWSDVAEGWRFVVARDYTRDWWSALGFEGLTACLDDAFWKLREAGWTEDDVRDMMMMDSVDQNTCIQQQTQTQSRDVVYAFGDEGMNERDRDTCTEDEDHQKGEVTTLRHLLLYDRLMS	failed
